Results as given in article PMC9305336.

Assays:
[1] = system: TSPYL5-NLD (Homo sapiens); experiment: EMSA; details: 10 mM Hepes pH 7.5, 200 mM NaCl, 1 mM TCEP, 5% glycerol, 0.5 mM EDTA; 30 min on ice then 20 min at 25 °C; 6% native Tris-glycine PAGE, GelGreen stain
[2] = target: recombinant His-tagged histone H3/H4 (human) (UniProt P68431); experiment: SEC-MALS; Enrich SEC 70 column in high salt HBS buffer (20 mM Hepes pH 7.5, 2 M NaCl, 1 mM TCEP, 5% glycerol); TSPYL5-NLD alone, H3/H4 alone (H3/H4 dimers to tetramer) and the coexpressed, co-purified complex

Row | Substance | Kd [1] | also measured
1 | 146 bp DNA | 380 nM | 
2 | 80 bp DNA | 500 nM | 
3 | recombinant His-tagged histone H3/H4 (from UniProt P68431 1-136; P62805 1-103) (complex) |  | stoichiometry N [2]: 4
4 | His-SUMO-tagged TSPYL5-NLD (from UniProt Q86VY4 198-388) (domain or fragment) |  | stoichiometry N (TSPYL5 : 2 H3 : 2 H4) [2]: 2
